Laboratory results: US20230021388A1 (VELOSBIO, published 2023)

B1: Ab1 Fab variant H1 G27D (Fab, V domains shown)
VH: QVQLQESGPGLVKPSQTLSLTCTVSDYAFTAYNIHWVRQAPGQGLEWMGSFDPYDGGSSYNQKFKDRLTISKDTSKNQVVLTMTNMDPVDTATYYCARGWYYFDYWGHGTLVTVSS
VL: DIVMTQTPLSLPVTPGEPASISCRASKSISKYLAWYQQKPGQAPRLLIYSGSTLQSGIPPRFSGSGYGTDFTLTINNIESEDAAYYFCQQHDESPYTFGEGTKVEIK
notes: Fab
B2: Ab1 Fab variant H1 G27R (Fab, V domains shown)
VH: QVQLQESGPGLVKPSQTLSLTCTVSRYAFTAYNIHWVRQAPGQGLEWMGSFDPYDGGSSYNQKFKDRLTISKDTSKNQVVLTMTNMDPVDTATYYCARGWYYFDYWGHGTLVTVSS
VL: DIVMTQTPLSLPVTPGEPASISCRASKSISKYLAWYQQKPGQAPRLLIYSGSTLQSGIPPRFSGSGYGTDFTLTINNIESEDAAYYFCQQHDESPYTFGEGTKVEIK
notes: Fab
B3: Ab1 Fab variant H1 G27T (Fab, V domains shown)
VH: QVQLQESGPGLVKPSQTLSLTCTVSTYAFTAYNIHWVRQAPGQGLEWMGSFDPYDGGSSYNQKFKDRLTISKDTSKNQVVLTMTNMDPVDTATYYCARGWYYFDYWGHGTLVTVSS
VL: DIVMTQTPLSLPVTPGEPASISCRASKSISKYLAWYQQKPGQAPRLLIYSGSTLQSGIPPRFSGSGYGTDFTLTINNIESEDAAYYFCQQHDESPYTFGEGTKVEIK
notes: Fab
B4: Ab1 Fab variant H1 N40K (Fab, V domains shown)
VH: QVQLQESGPGLVKPSQTLSLTCTVSGYAFTAYKIHWVRQAPGQGLEWMGSFDPYDGGSSYNQKFKDRLTISKDTSKNQVVLTMTNMDPVDTATYYCARGWYYFDYWGHGTLVTVSS
VL: DIVMTQTPLSLPVTPGEPASISCRASKSISKYLAWYQQKPGQAPRLLIYSGSTLQSGIPPRFSGSGYGTDFTLTINNIESEDAAYYFCQQHDESPYTFGEGTKVEIK
notes: Fab
B5: Ab1 Fab variant H1 T32D (Fab, V domains shown)
VH: QVQLQESGPGLVKPSQTLSLTCTVSGYAFDAYNIHWVRQAPGQGLEWMGSFDPYDGGSSYNQKFKDRLTISKDTSKNQVVLTMTNMDPVDTATYYCARGWYYFDYWGHGTLVTVSS
VL: DIVMTQTPLSLPVTPGEPASISCRASKSISKYLAWYQQKPGQAPRLLIYSGSTLQSGIPPRFSGSGYGTDFTLTINNIESEDAAYYFCQQHDESPYTFGEGTKVEIK
notes: Fab
B6: Ab1 Fab variant H1 Y29K (Fab, V domains shown)
VH: QVQLQESGPGLVKPSQTLSLTCTVSGKAFTAYNIHWVRQAPGQGLEWMGSFDPYDGGSSYNQKFKDRLTISKDTSKNQVVLTMTNMDPVDTATYYCARGWYYFDYWGHGTLVTVSS
VL: DIVMTQTPLSLPVTPGEPASISCRASKSISKYLAWYQQKPGQAPRLLIYSGSTLQSGIPPRFSGSGYGTDFTLTINNIESEDAAYYFCQQHDESPYTFGEGTKVEIK
notes: Fab
B7: Ab1 Fab variant H1 Y29S (Fab, V domains shown)
VH: QVQLQESGPGLVKPSQTLSLTCTVSGSAFTAYNIHWVRQAPGQGLEWMGSFDPYDGGSSYNQKFKDRLTISKDTSKNQVVLTMTNMDPVDTATYYCARGWYYFDYWGHGTLVTVSS
VL: DIVMTQTPLSLPVTPGEPASISCRASKSISKYLAWYQQKPGQAPRLLIYSGSTLQSGIPPRFSGSGYGTDFTLTINNIESEDAAYYFCQQHDESPYTFGEGTKVEIK
notes: Fab
B8: Ab1 Fab variant H2 D59S (Fab, V domains shown)
VH: QVQLQESGPGLVKPSQTLSLTCTVSGYAFTAYNIHWVRQAPGQGLEWMGSFSPYDGGSSYNQKFKDRLTISKDTSKNQVVLTMTNMDPVDTATYYCARGWYYFDYWGHGTLVTVSS
VL: DIVMTQTPLSLPVTPGEPASISCRASKSISKYLAWYQQKPGQAPRLLIYSGSTLQSGIPPRFSGSGYGTDFTLTINNIESEDAAYYFCQQHDESPYTFGEGTKVEIK
notes: Fab
B9: Ab1 Fab variant H2 D65N (Fab, V domains shown)
VH: QVQLQESGPGLVKPSQTLSLTCTVSGYAFTAYNIHWVRQAPGQGLEWMGSFDPYNGGSSYNQKFKDRLTISKDTSKNQVVLTMTNMDPVDTATYYCARGWYYFDYWGHGTLVTVSS
VL: DIVMTQTPLSLPVTPGEPASISCRASKSISKYLAWYQQKPGQAPRLLIYSGSTLQSGIPPRFSGSGYGTDFTLTINNIESEDAAYYFCQQHDESPYTFGEGTKVEIK
notes: Fab
B10: Ab1 Fab variant H2 D65T (Fab, V domains shown)
VH: QVQLQESGPGLVKPSQTLSLTCTVSGYAFTAYNIHWVRQAPGQGLEWMGSFDPYTGGSSYNQKFKDRLTISKDTSKNQVVLTMTNMDPVDTATYYCARGWYYFDYWGHGTLVTVSS
VL: DIVMTQTPLSLPVTPGEPASISCRASKSISKYLAWYQQKPGQAPRLLIYSGSTLQSGIPPRFSGSGYGTDFTLTINNIESEDAAYYFCQQHDESPYTFGEGTKVEIK
notes: Fab
B11: Ab1 Fab variant H2 F58P (Fab, V domains shown)
VH: QVQLQESGPGLVKPSQTLSLTCTVSGYAFTAYNIHWVRQAPGQGLEWMGSPDPYDGGSSYNQKFKDRLTISKDTSKNQVVLTMTNMDPVDTATYYCARGWYYFDYWGHGTLVTVSS
VL: DIVMTQTPLSLPVTPGEPASISCRASKSISKYLAWYQQKPGQAPRLLIYSGSTLQSGIPPRFSGSGYGTDFTLTINNIESEDAAYYFCQQHDESPYTFGEGTKVEIK
notes: Fab
B12: Ab1 Fab variant H2 G67H (Fab, V domains shown)
VH: QVQLQESGPGLVKPSQTLSLTCTVSGYAFTAYNIHWVRQAPGQGLEWMGSFDPYDGHSSYNQKFKDRLTISKDTSKNQVVLTMTNMDPVDTATYYCARGWYYFDYWGHGTLVTVSS
VL: DIVMTQTPLSLPVTPGEPASISCRASKSISKYLAWYQQKPGQAPRLLIYSGSTLQSGIPPRFSGSGYGTDFTLTINNIESEDAAYYFCQQHDESPYTFGEGTKVEIK
notes: Fab
B13: Ab1 Fab variant H2 G67M (Fab, V domains shown)
VH: QVQLQESGPGLVKPSQTLSLTCTVSGYAFTAYNIHWVRQAPGQGLEWMGSFDPYDGMSSYNQKFKDRLTISKDTSKNQVVLTMTNMDPVDTATYYCARGWYYFDYWGHGTLVTVSS
VL: DIVMTQTPLSLPVTPGEPASISCRASKSISKYLAWYQQKPGQAPRLLIYSGSTLQSGIPPRFSGSGYGTDFTLTINNIESEDAAYYFCQQHDESPYTFGEGTKVEIK
notes: Fab
B14: Ab1 Fab variant H2 G67S (Fab, V domains shown)
VH: QVQLQESGPGLVKPSQTLSLTCTVSGYAFTAYNIHWVRQAPGQGLEWMGSFDPYDGSSSYNQKFKDRLTISKDTSKNQVVLTMTNMDPVDTATYYCARGWYYFDYWGHGTLVTVSS
VL: DIVMTQTPLSLPVTPGEPASISCRASKSISKYLAWYQQKPGQAPRLLIYSGSTLQSGIPPRFSGSGYGTDFTLTINNIESEDAAYYFCQQHDESPYTFGEGTKVEIK
notes: Fab
B15: Ab1 Fab variant H2 K73C (Fab, V domains shown)
VH: QVQLQESGPGLVKPSQTLSLTCTVSGYAFTAYNIHWVRQAPGQGLEWMGSFDPYDGGSSYNQCFKDRLTISKDTSKNQVVLTMTNMDPVDTATYYCARGWYYFDYWGHGTLVTVSS
VL: DIVMTQTPLSLPVTPGEPASISCRASKSISKYLAWYQQKPGQAPRLLIYSGSTLQSGIPPRFSGSGYGTDFTLTINNIESEDAAYYFCQQHDESPYTFGEGTKVEIK
notes: Fab
B16: Ab1 Fab variant H2 K73S (Fab, V domains shown)
VH: QVQLQESGPGLVKPSQTLSLTCTVSGYAFTAYNIHWVRQAPGQGLEWMGSFDPYDGGSSYNQSFKDRLTISKDTSKNQVVLTMTNMDPVDTATYYCARGWYYFDYWGHGTLVTVSS
VL: DIVMTQTPLSLPVTPGEPASISCRASKSISKYLAWYQQKPGQAPRLLIYSGSTLQSGIPPRFSGSGYGTDFTLTINNIESEDAAYYFCQQHDESPYTFGEGTKVEIK
notes: Fab
B17: Ab1 Fab variant H2 K75A (Fab, V domains shown)
VH: QVQLQESGPGLVKPSQTLSLTCTVSGYAFTAYNIHWVRQAPGQGLEWMGSFDPYDGGSSYNQKFADRLTISKDTSKNQVVLTMTNMDPVDTATYYCARGWYYFDYWGHGTLVTVSS
VL: DIVMTQTPLSLPVTPGEPASISCRASKSISKYLAWYQQKPGQAPRLLIYSGSTLQSGIPPRFSGSGYGTDFTLTINNIESEDAAYYFCQQHDESPYTFGEGTKVEIK
notes: Fab
B18: Ab1 Fab variant H2 K75G (Fab, V domains shown)
VH: QVQLQESGPGLVKPSQTLSLTCTVSGYAFTAYNIHWVRQAPGQGLEWMGSFDPYDGGSSYNQKFGDRLTISKDTSKNQVVLTMTNMDPVDTATYYCARGWYYFDYWGHGTLVTVSS
VL: DIVMTQTPLSLPVTPGEPASISCRASKSISKYLAWYQQKPGQAPRLLIYSGSTLQSGIPPRFSGSGYGTDFTLTINNIESEDAAYYFCQQHDESPYTFGEGTKVEIK
notes: Fab
B19: Ab1 Fab variant H2 P60G (Fab, V domains shown)
VH: QVQLQESGPGLVKPSQTLSLTCTVSGYAFTAYNIHWVRQAPGQGLEWMGSFDGYDGGSSYNQKFKDRLTISKDTSKNQVVLTMTNMDPVDTATYYCARGWYYFDYWGHGTLVTVSS
VL: DIVMTQTPLSLPVTPGEPASISCRASKSISKYLAWYQQKPGQAPRLLIYSGSTLQSGIPPRFSGSGYGTDFTLTINNIESEDAAYYFCQQHDESPYTFGEGTKVEIK
notes: Fab
B20: Ab1 Fab variant H2 P60T (Fab, V domains shown)
VH: QVQLQESGPGLVKPSQTLSLTCTVSGYAFTAYNIHWVRQAPGQGLEWMGSFDTYDGGSSYNQKFKDRLTISKDTSKNQVVLTMTNMDPVDTATYYCARGWYYFDYWGHGTLVTVSS
VL: DIVMTQTPLSLPVTPGEPASISCRASKSISKYLAWYQQKPGQAPRLLIYSGSTLQSGIPPRFSGSGYGTDFTLTINNIESEDAAYYFCQQHDESPYTFGEGTKVEIK
notes: Fab

biological target: T1, recombinant human ROR1 extracellular domain (human, UniProt Q01973 30-406); test: capture filter lift
T1 construct: biotinylated for the filter lifts; also called huROR1-ECD; human ROR1-ECD
T1 sequence (Q01973 30-406 limits assumed): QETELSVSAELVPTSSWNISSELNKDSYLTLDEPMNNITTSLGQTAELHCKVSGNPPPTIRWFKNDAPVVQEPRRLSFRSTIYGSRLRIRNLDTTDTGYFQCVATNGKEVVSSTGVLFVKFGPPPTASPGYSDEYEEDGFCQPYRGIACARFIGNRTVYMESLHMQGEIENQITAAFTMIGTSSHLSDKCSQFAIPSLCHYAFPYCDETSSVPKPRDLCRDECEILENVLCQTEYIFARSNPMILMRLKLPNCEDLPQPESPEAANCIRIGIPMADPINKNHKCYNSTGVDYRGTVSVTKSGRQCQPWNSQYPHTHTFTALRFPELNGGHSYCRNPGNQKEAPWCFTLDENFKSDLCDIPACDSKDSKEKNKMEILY
Experimental: Subsequently, the filter was applied to the agar plates as described above. For detection of antigen binding, the filter was rinsed briefly in PBS, and transferred to biotinylated huROR1-ECD (ACROBiosystems, cat. #RO1-H522y) in 5% M-P.
Filters were incubated with 2.3 nM biotinylated ROR1 diluted in 5% M-P for 2 h at 25° C. with constant agitation, and washed 5 times, 2 minutes each wash, with constant agitation in PBS-T. Alternatively, filters were washed more rapidly using a squirt bottle and sintered glass funnel for vacuum filtration. The filters were transferred to 10 mL of High Sensitivity Neutravidin, HRP conjugate (Thermo Scientific, cat. #31030) diluted 5000-fold in 1% BSA in PBS and incubated for 1 h at 25° C. The filters were then washed 5 times in PBS-T and were developed with 1-Step Ultra TMB-Blotting.
All libraries were initially screened by capture lift to identify variants with improved binding. The capture lift assay, described in Example 1, enables the filter lift assay to discern variants that bind antigen more strongly based on the staining intensity. In order to determine the optimal concentration of antigen to use for screening, biotinylated huROR1-ECD was titrated on a capture lift of Ab1 Fab. Binding to Ab1 was clearly visible at antigen concentrations ≥23 nM and the signal was diminished at lower huROR1 concentrations. […] In addition, for more stringent screening, filters were probed with lower concentrations of antigen and/or development of the filter was terminated earlier, before the Ab1 staining was visible. […] In this example, approximately 250 library variants were plated. Twelve variants clearly bound huROR1 (FIG. 4, numbered).

Binding result, binds:
B1, B2, B3, B4, B5, B6, B7, B8, B9, B10, B11, B12, B13, B14, B15, B16, B17, B18, B19, B20
